Paper PMC10919079, “Biosynthesis of UDP-α-N-Acetyl-D-mannosaminuronic Acid and CMP-β-N-Acetyl-D-neuraminic Acid for the Capsular Polysaccharides of Campylobacter jejuni” (Biochemistry, 2024)

Assays:
[1] = test system: CC(=O)N[C@H]1[C@@H](OP(=O)(O)OP(=O)(O)OC[C@H]2O[C@@H](n3ccc(=O)[nH]c3=O)[C@H](O)[C@@H]2O)O[C@H](CO)[C@@H](O)[C@@H]1O; experiment: purified protein; conditions: pH 7.5, 25 °C
[2] = biological target: T1, CMP-Neu5Ac synthase (HS6.5) (Campylobacter jejuni, UniProt P0DY07); experiment: anion exchange chromatography, NMR and MS of CMP-Neu5Ac product; type: biochemical; conditions: pH 7.5; Neu5Ac co-substrate, MgCl2, pyrophosphatase
T1 construct: full-length synthetic codon-optimised gene, N-terminal His6 tag kept, pET-28a(+), E. coli BL21(DE3)
T1 sequence (P0DY07 whole entry): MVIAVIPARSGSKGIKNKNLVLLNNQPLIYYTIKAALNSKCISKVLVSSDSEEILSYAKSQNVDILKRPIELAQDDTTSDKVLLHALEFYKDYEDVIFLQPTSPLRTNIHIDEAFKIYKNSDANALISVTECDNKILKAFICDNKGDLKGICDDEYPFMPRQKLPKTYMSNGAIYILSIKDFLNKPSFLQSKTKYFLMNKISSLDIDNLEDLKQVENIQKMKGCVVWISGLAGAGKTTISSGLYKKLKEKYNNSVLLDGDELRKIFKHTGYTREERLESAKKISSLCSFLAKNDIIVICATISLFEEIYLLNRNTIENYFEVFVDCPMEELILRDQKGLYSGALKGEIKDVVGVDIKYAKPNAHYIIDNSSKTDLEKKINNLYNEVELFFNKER

[3] = test system: CC(=O)N[C@@H]1[C@@H](OP(=O)(O)OP(=O)(O)OC[C@H]2O[C@@H](n3ccc(=O)[nH]c3=O)[C@H](O)[C@@H]2O)O[C@H](CO)[C@@H](O)[C@@H]1O; experiment: purified protein; conditions: pH 7.5, 25 °C, same buffer, 2.0 mM NAD+, 2.0 mM DTT, UDP-ManNAc generated in situ from UDP-GlcNAc with excess C2-epimerase (10 μM)
[4] = 50 mM HEPES, 250 mM KCl, 5% glycerol, excess C6-dehydrogenase (10 μM), 2.0 mM NAD+, 2.0 mM DTT
[5] = same buffer, 10 mM MgCl2, 2.0 mM PEP, 300 μM NADH

Molecule: nonhydrolyzing UDP-GlcNAc C2-epimerase (HS11.17) (Campylobacter jejuni)
- Km [1, 4]: 1370 ± 50 µM
- kcat [1, 4]: 5.7 ± 0.2 s⁻¹
- kcat/Km [1, 4]: 4200 ± 200 M⁻¹ s⁻¹

Molecule: hydrolyzing UDP-GlcNAc C2-epimerase (HS6.10) (Campylobacter jejuni subsp. jejuni 81116)
- Km [1, 5]: 160 ± 10 µM
- kcat [1, 5]: 3.1 ± 0.1 s⁻¹
- kcat/Km [1, 5]: 19900 ± 1000 M⁻¹ s⁻¹

Molecule: Nc1ccn([C@@H]2O[C@H](COP(=O)(O)OP(=O)(O)OP(=O)(O)O)[C@@H](O)[C@H]2O)c(=O)n1 [CTP]
- anion exchange chromatography, NMR and MS of CMP-Neu5Ac product [2]: CMP-Neu5Ac synthase using CTP as the nucleotide donor

Molecule: UDP-ManNAc C6-dehydrogenase (HS11.16) (Campylobacter jejuni)
- Km [3]: 22 ± 1 µM
- kcat [3]: 0.2 ± 0.01 s⁻¹
- kcat/Km [3]: 8700 ± 400 M⁻¹ s⁻¹
